Four proteins from paper PMC9100969, “Structure-Guided Engineering of a Family IV Cold-Adapted Esterase Expands Its Substrate Range” (International Journal of Molecular Sciences, 2022) can be followed below.

Test in all cases: purified protein
Format in all cases: biochemical, Sutcliffiella cohnii
Holding throughout (conditions): 50 mM Tris-HCl pH 8.0, 20 °C

Substrate in series [1]: CC(=O)Oc1ccc([N+](=O)[O-])cc1
Substrate in series [2]: CCCCCC(=O)Oc1ccc([N+](=O)[O-])cc1
Substrate in series [3]: CCCC(=O)Oc1ccc([N+](=O)[O-])cc1
Substrate in series [4]: CCCCCCCC(=O)Oc1ccc([N+](=O)[O-])cc1

Broadly, the Km is the substrate concentration at which the rate is half of its maximum. The term kcat denotes the number of substrate molecules converted per active site and unit of time at saturation. Usually kcat/Km stands for the second-order rate constant that governs catalysis at low substrate concentration.

B1: EstN7 (Sutcliffiella cohnii; W206A) (protein)
chain: MKNRIDPELRAMLDMFPPLNLDDVQATRKAMEEAAQLTELPVDEEVVVSNRMVPGPEDNPYVRVRIYEPKEKIEKLPGLLWIHGGGYVLGAPEGDDLLCQRFVKEANCVVVSVDYRLAPEHPYPAPLEDCYAALQWFAKKVDELGVDASRIGVGGQSAGGGLTAALALLARDRKGPELCFQMPLYPMIDDKNNSPSSLEITGNLIANHDLNEKGWSMYLDGKNGTDDVPVHAAPARATDLTNLPYTYTCVGQLDPFRDETLDYVKRLCQAGVDVEFHLYPGAYHGFETLNPAAAVSQRALAEYVGAVKHVLNREKVVERK
notes: recombinant, purified from E. coli BL21(DE3); dimer; catalytic triad S157, D254, H284
Turning to B1, in “purified protein [1]”, the Km came out at 1300 ± 140 µM, the kcat stood at 1.5 ± 0.07 s⁻¹ and the kcat/Km came out at 1190 M⁻¹ s⁻¹. Also, in the series “purified protein [2]”, the Km was found to be 1100 ± 70 µM, the kcat came to 3.8 ± 0.07 s⁻¹ and the kcat/Km is 3350 M⁻¹ s⁻¹. In the series “purified protein [3]”, the Km worked out at 1200 ± 550 µM, the kcat amounted to 8 ± 1 s⁻¹ and the kcat/Km is 6670 M⁻¹ s⁻¹.

B2: EstN7 (Sutcliffiella cohnii; M187A/N211A) (protein)
chain: MKNRIDPELRAMLDMFPPLNLDDVQATRKAMEEAAQLTELPVDEEVVVSNRMVPGPEDNPYVRVRIYEPKEKIEKLPGLLWIHGGGYVLGAPEGDDLLCQRFVKEANCVVVSVDYRLAPEHPYPAPLEDCYAALQWFAKKVDELGVDASRIGVGGQSAGGGLTAALALLARDRKGPELCFQMPLYPAIDDKNNSPSSLEITGNLIWNHDLAEKGWSMYLDGKNGTDDVPVHAAPARATDLTNLPYTYTCVGQLDPFRDETLDYVKRLCQAGVDVEFHLYPGAYHGFETLNPAAAVSQRALAEYVGAVKHVLNREKVVERK
notes: as for B1
On to B2, for which the Km in “purified protein [4]” worked out at 950 ± 20 µM; in “purified protein [1]” it was 1100 ± 70 µM; in “purified protein [2]” it was 1200 ± 10 µM; in the series “purified protein [3]” it was 370 ± 80 µM. For the same protein, the kcat was 0.45 ± 0.02 s⁻¹ in the series “purified protein [4]”, 361 ± 0.14 s⁻¹ in “purified protein [1]”, 24.5 ± 0.7 s⁻¹ in the series “purified protein [2]” and 17.6 ± 2.1 s⁻¹ in “purified protein [3]”. The catalytic efficiency (kcat/Km) in the series “purified protein [4]” worked out at 473 M⁻¹ s⁻¹; in “purified protein [1]”, 328000 M⁻¹ s⁻¹; in the series “purified protein [2]”, 20400 M⁻¹ s⁻¹; in “purified protein [3]”, 46800 M⁻¹ s⁻¹.

B3: EstN7 (Sutcliffiella cohnii) (protein)
chain: MKNRIDPELRAMLDMFPPLNLDDVQATRKAMEEAAQLTELPVDEEVVVSNRMVPGPEDNPYVRVRIYEPKEKIEKLPGLLWIHGGGYVLGAPEGDDLLCQRFVKEANCVVVSVDYRLAPEHPYPAPLEDCYAALQWFAKKVDELGVDASRIGVGGQSAGGGLTAALALLARDRKGPELCFQMPLYPMIDDKNNSPSSLEITGNLIWNHDLNEKGWSMYLDGKNGTDDVPVHAAPARATDLTNLPYTYTCVGQLDPFRDETLDYVKRLCQAGVDVEFHLYPGAYHGFETLNPAAAVSQRALAEYVGAVKHVLNREKVVERK
notes: as for B1
Turning to B3, in “purified protein [1]”, the Km was found to be 50 ± 7 µM, the catalytic constant (kcat) stood at 760 ± 3.5 s⁻¹ and the kcat/Km stood at 1.52e+07 M⁻¹ s⁻¹. Moreover, in “purified protein [3]”, the Km turned out to be 57 ± 2 µM, the kcat turned out to be 0.32 ± 0.005 s⁻¹ and the specificity constant (kcat/Km) is 5610 M⁻¹ s⁻¹.

B4: EstN7 (Sutcliffiella cohnii; N211A) (protein)
chain: MKNRIDPELRAMLDMFPPLNLDDVQATRKAMEEAAQLTELPVDEEVVVSNRMVPGPEDNPYVRVRIYEPKEKIEKLPGLLWIHGGGYVLGAPEGDDLLCQRFVKEANCVVVSVDYRLAPEHPYPAPLEDCYAALQWFAKKVDELGVDASRIGVGGQSAGGGLTAALALLARDRKGPELCFQMPLYPMIDDKNNSPSSLEITGNLIWNHDLAEKGWSMYLDGKNGTDDVPVHAAPARATDLTNLPYTYTCVGQLDPFRDETLDYVKRLCQAGVDVEFHLYPGAYHGFETLNPAAAVSQRALAEYVGAVKHVLNREKVVERK
notes: as for B1
Consider B4, for which, in “purified protein [1]”, the Km was found to be 750 ± 1 µM, the kcat was 280.5 ± 0.07 s⁻¹ and the kcat/Km was determined as 374000 M⁻¹ s⁻¹. For the same protein, in “purified protein [2]”, the Km was determined as 370 ± 50 µM, the kcat came out at 2.3 ± 0.2 s⁻¹ and the kcat/Km was determined as 6280 M⁻¹ s⁻¹. Moreover, in “purified protein [3]”, the Km is 2000 ± 200 µM, the kcat is 15 ± 0.5 s⁻¹ and the kcat/Km amounted to 7500 M⁻¹ s⁻¹.
